In patent US20170008955A1 (CNJ, published 2017):

Legend:
cSNK:BSA conjugate [1] = biological target: T1, cSNK:BSA conjugate (bovine, head-to-tail cyclized; conjugated to BSA carrier); assay: BLI 2:1 fit, site 2 (kdis2); 100 nM row
T1 construct: also called BSA-cSNK
Procedure: (§1) Biolayer interferometry (Octet […], ForteBio) was used to qualitatively/quantitatively assess the interactions between humanized versions of 5E3 and cSNK:BSA conjugate. […] MAbs were loaded onto sensors and then washed in PBST. Each sensor was associated with one of several cSNK:BSA standards (100 nM to 0 nM) and then washed in PBST. Data was processed statistically using ForteBio Data Analysis software to determine the strength of antigen-antibody binding (KD). For each mAb analyzed, a 2:1 model provided the “best fit”.

cSNK:BSA conjugate [2] = biological target: T1, cSNK:BSA conjugate; assay: BLI 2:1 fit, site 2 (kdis2); 6.25 nM row
Procedure: as §1

cSNK:BSA conjugate [3] = biological target: T1, cSNK:BSA conjugate; assay: BLI 2:1 fit, site 2 (kon2); 1.56 nM row
Procedure: as §1

cSNK:BSA conjugate [4] = biological target: T1, cSNK:BSA conjugate; assay: BLI 2:1 fit, site 2 (KD2); 12.5 nM row
Procedure: as §1

cSNK:BSA conjugate [5] = biological target: T1, cSNK:BSA conjugate; assay: BLI 2:1 fit, site 1; 1.56 nM row
Procedure: as §1

cSNK:BSA conjugate [6] = biological target: T1, cSNK:BSA conjugate; assay: BLI 2:1 fit, site 2 (kon2); 6.25 nM row
Procedure: as §1

cSNK:BSA conjugate [7] = biological target: T1, cSNK:BSA conjugate; assay: BLI 2:1 fit, site 2 (KD2); 1.56 nM row
Procedure: as §1

cSNK:BSA conjugate [8] = biological target: T1, cSNK:BSA conjugate; assay: BLI 2:1 fit, site 2 (KD2); 6.25 nM row
Procedure: as §1

cSNK:BSA conjugate [9] = biological target: T1, cSNK:BSA conjugate; assay: BLI (Octet RED96), 2:1 kinetics, KD2, summary table
Procedure: as §1
(§2) Table 7 summarizes the affinity constants of humanized 5E3 IgG1, IgG2 and IgG4 constructs. The KD ranges were determined using 2:1 kinetics of binding of analyte (BSA-cSNK) in solution to two different binding sites on the surface (immobilized bivalent, monospecific 5E3) in comparison to murine 5E3 using biolayer interferometry (Octet RED96).

cSNK:BSA conjugate [10] = biological target: T1, cSNK:BSA conjugate; assay: BLI 2:1 fit, site 1; 25 nM row
Procedure: as §1

cSNK:BSA conjugate [11] = biological target: T1, cSNK:BSA conjugate; assay: BLI 2:1 fit, site 2 (kdis2); 1.56 nM row
Procedure: as §1

cSNK:BSA conjugate [12] = biological target: T1, cSNK:BSA conjugate; assay: BLI 2:1 fit, site 2 (kdis2); 50 nM row
Procedure: as §1

cSNK:BSA conjugate [13] = biological target: T1, cSNK:BSA conjugate; assay: BLI 2:1 fit, site 2 (kdis2); 3.13 nM row
Procedure: as §1

cSNK:BSA conjugate [14] = biological target: T1, cSNK:BSA conjugate; assay: BLI (Octet RED96), 2:1 kinetics, KD1, summary table
Procedure: as §1, §2

cSNK:BSA conjugate [15] = biological target: T1, cSNK:BSA conjugate; assay: BLI 2:1 fit, site 1; 100 nM row
Procedure: as §1

cSNK:BSA conjugate [16] = biological target: T1, cSNK:BSA conjugate; assay: BLI 2:1 fit, site 2 (kdis2); 12.5 nM row
Procedure: as §1

cSNK:BSA conjugate [17] = biological target: T1, cSNK:BSA conjugate; assay: BLI 2:1 fit, site 2 (KD2); 50 nM row
Procedure: as §1

cSNK:BSA conjugate [18] = biological target: T1, cSNK:BSA conjugate; assay: BLI 2:1 fit, site 2 (kon2); 3.13 nM row
Procedure: as §1

cSNK:BSA conjugate [19] = biological target: T1, cSNK:BSA conjugate; assay: BLI 2:1 fit, site 2 (kon2); 25 nM row
Procedure: as §1

cSNK:BSA conjugate [20] = biological target: T1, cSNK:BSA conjugate; assay: BLI 2:1 fit, site 2 (kon2); 100 nM row
Procedure: as §1

cSNK:BSA conjugate [21] = biological target: T1, cSNK:BSA conjugate; assay: BLI 2:1 fit, site 2 (kon2); 12.5 nM row
Procedure: as §1

cSNK:BSA conjugate [22] = biological target: T1, cSNK:BSA conjugate; assay: BLI 2:1 fit, site 1; 6.25 nM row
Procedure: as §1

cSNK:BSA conjugate [23] = biological target: T1, cSNK:BSA conjugate; assay: BLI 2:1 fit, site 2 (KD2); 3.13 nM row
Procedure: as §1

cSNK:BSA conjugate [24] = biological target: T1, cSNK:BSA conjugate; assay: BLI (Octet), 1:1 model, BSA-cSNK
Procedure: Biolayer interferometry (Octet Red92, ForteBio) was used to qualitatively/quantitatively assess the interactions between humanized 5E3 and Δ5E3 mAbs to the cSNK:BSA conjugate. […] MAbs were loaded onto sensors and then washed in PBST. Each sensor was associated with one of several cSNK:BSA standards (100 nM to 0 nM) and then washed in PBST. Data was processed statistically using ForteBio Data Analysis software to determine the strength of antigen-antibody binding (KD). For each mAb analyzed, a 1:1 model provided the “best fit”.

cSNK:BSA conjugate [25] = biological target: T1, cSNK:BSA conjugate; assay: BLI 2:1 fit, site 1; 50 nM row
Procedure: as §1

T1 sequence (P02769 25-607 limits assumed): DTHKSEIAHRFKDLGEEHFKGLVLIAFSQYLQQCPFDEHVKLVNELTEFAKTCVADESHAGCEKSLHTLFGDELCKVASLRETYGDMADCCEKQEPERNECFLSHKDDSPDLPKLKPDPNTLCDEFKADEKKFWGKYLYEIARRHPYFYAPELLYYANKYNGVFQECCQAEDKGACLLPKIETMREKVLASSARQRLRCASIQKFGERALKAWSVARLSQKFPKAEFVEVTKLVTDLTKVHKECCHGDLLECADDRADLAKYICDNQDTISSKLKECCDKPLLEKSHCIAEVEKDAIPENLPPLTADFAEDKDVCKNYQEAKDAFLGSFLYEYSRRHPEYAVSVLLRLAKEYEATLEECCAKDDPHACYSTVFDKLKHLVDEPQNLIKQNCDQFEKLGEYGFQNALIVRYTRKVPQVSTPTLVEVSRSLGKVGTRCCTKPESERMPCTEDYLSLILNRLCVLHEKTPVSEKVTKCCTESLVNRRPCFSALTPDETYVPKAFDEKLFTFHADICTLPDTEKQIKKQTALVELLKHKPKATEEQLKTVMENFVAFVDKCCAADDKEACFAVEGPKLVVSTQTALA

B1: hu5E3-IgG4 (antibody, V domains shown)
VH: QVQLQQSGPEVKKPGASVKISCKASGYIFTSYYIQWVIHAPGQGLEWIGWIYPGNVNTKYNEKFKGKATLTADKSSSTAYMELSSLTSEDTAVYFCARMDYEAHYWGQGTTVTVSS
VL: DIQMTQSPSSLSASVGDRVTITCRASQEISGYLTWLQQKPEGAIKRLIYAASTLDSGVPKRFSGSRSGSDYSLTISSLQPEDFATYNCLQYANYPRTFGGGTKLEIK
notes: human IgG4/kappa; also called humanized 5E3 IgG4
koff (cSNK:BSA conjugate [1]): 0.0229 s⁻¹ | koff (cSNK:BSA conjugate [2]): 0.0229 s⁻¹ | kon (cSNK:BSA conjugate [3]): 7.52e+06 M⁻¹ s⁻¹ | Kd (cSNK:BSA conjugate [4]): 3.04 nM | Kd (cSNK:BSA conjugate [5]): 0.633 nM | koff (cSNK:BSA conjugate [5]): 0.00055 s⁻¹ | kon (cSNK:BSA conjugate [5]): 868000 M⁻¹ s⁻¹ | kon (cSNK:BSA conjugate [6]): 7.52e+06 M⁻¹ s⁻¹ | Kd (cSNK:BSA conjugate [7]): 3.04 nM | Kd (cSNK:BSA conjugate [8]): 3.04 nM | Kd (cSNK:BSA conjugate [9]): 0.304 nM | Kd (cSNK:BSA conjugate [10]): 0.633 nM | koff (cSNK:BSA conjugate [10]): 0.00055 s⁻¹ | kon (cSNK:BSA conjugate [10]): 868000 M⁻¹ s⁻¹ | koff (cSNK:BSA conjugate [11]): 0.0229 s⁻¹ | koff (cSNK:BSA conjugate [12]): 0.0229 s⁻¹ | koff (cSNK:BSA conjugate [13]): 0.0229 s⁻¹ | Kd (cSNK:BSA conjugate [14]): 0.633 nM | Kd (cSNK:BSA conjugate [15]): 0.633 nM | koff (cSNK:BSA conjugate [15]): 0.00055 s⁻¹ | kon (cSNK:BSA conjugate [15]): 868000 M⁻¹ s⁻¹ | koff (cSNK:BSA conjugate [16]): 0.0229 s⁻¹ | Kd (cSNK:BSA conjugate [17]): 3.04 nM | kon (cSNK:BSA conjugate [18]): 7.52e+06 M⁻¹ s⁻¹ | kon (cSNK:BSA conjugate [19]): 7.52e+06 M⁻¹ s⁻¹ | kon (cSNK:BSA conjugate [20]): 7.52e+06 M⁻¹ s⁻¹ | kon (cSNK:BSA conjugate [21]): 7.52e+06 M⁻¹ s⁻¹ | Kd (cSNK:BSA conjugate [22]): 0.633 nM | koff (cSNK:BSA conjugate [22]): 0.00055 s⁻¹ | kon (cSNK:BSA conjugate [22]): 868000 M⁻¹ s⁻¹ | Kd (cSNK:BSA conjugate [23]): 3.04 nM | Kd (cSNK:BSA conjugate [24]): 1.31 nM | Kd (cSNK:BSA conjugate [25]): 0.633 nM | koff (cSNK:BSA conjugate [25]): 0.00055 s⁻¹ | kon (cSNK:BSA conjugate [25]): 868000 M⁻¹ s⁻¹
